In general, Kd refers to the concentration at which binding is half-saturated. High values mean weaker binding, low ones tighter binding.

Results on 2 molecules are retold here after paper PMC3042044.

The star is where a group is joined. CSCF3 = thiotrifluoroacetyl on lysine, FC(F)(F)C(=S)*; fluorescein = fluorescein label at the N-terminus

For one assay, the target named is Hst2 (yeast) (UniProt P53686). In words: ITC.
Assay [1] addresses SIRT3 (human). The assay is described as follows: fluorescence polarisation.
Assay [2] addresses SIRT3 (human). In words: ITC. In general terms: In ITC the heat of successive injections is recorded.

UniProt P53686, sequence (P53686 whole entry): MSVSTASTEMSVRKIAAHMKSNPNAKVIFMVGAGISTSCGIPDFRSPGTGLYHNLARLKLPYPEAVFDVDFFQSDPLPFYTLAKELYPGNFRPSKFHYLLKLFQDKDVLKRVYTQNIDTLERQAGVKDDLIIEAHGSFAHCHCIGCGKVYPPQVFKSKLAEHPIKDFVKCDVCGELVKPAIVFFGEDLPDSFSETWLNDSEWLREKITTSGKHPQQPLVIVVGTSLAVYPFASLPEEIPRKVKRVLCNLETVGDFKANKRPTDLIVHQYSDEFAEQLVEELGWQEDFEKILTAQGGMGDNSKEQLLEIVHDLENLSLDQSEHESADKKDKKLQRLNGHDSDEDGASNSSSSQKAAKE

In turn, “Histone H3 peptide with pentafluoropropionyl-lysine at Lys-14” displayed a Kd in the assay with Hst2 (yeast) of 950 nM.

B1: Fluorescein-labeled thiotrifluoroacetyl-lysine peptide based on acetyl-CoA synthetase 2 (Fluorescein-LPKTRSGK(CSCF3)VMRR-OH) (peptide)
peptide: fluorescein-LPKTRSGK(CSCF3)VMRR-OH
On to B1, for which the Kd is 1700 nM with SIRT3 (human) [1] and 900 nM with SIRT3 (human) [2].
